experiment: yeast display, Sf9 membrane polyspecificity reagent, FACS + sequencing; frameworks hold sequencing errors
In short: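 Sorting gates, low and high (top ~1%), were placed on anti-HA fluorescence to track expression and on streptavidin fluorescence to track reagent binding. A clone's polyreactivity label is taken from the gate it came out of. The reagent was 10% biotinylated, detergent-solubilized Sf9 membrane, applied for 1 hour at 4 °C to galactose-induced yeast display cells.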

Sequence | polyreactivity (PSR sort gate)
QVQLVESGGGLVQAGGSLRLSCAASGRTFWYYAMGWSRQAPGKERELVATITSGGSTYYADSVKGRFTISRDNAKNTVYLQMNSLKPEDTAVYYCAARKYYSRAYDYWGQGTQVTVSS | high polyreactivity
QVQLVESWGGLVQAGGSLRLSCAASGFTYSQYVMGWYIQAPGKERELVASITGNGGSTRYADSVKGRFTISRDNAKNTVYLHMNSLKPEDTAVYYCAARYVYFRWGSFDYWGQGTQVTVSS | high polyreactivity
QVQLVESGGGLVQAGGSLRLSCASSGITFVVNAMVWYRQAPGKEREFVAAIDVRGGTTYYADSVKGRFTISRDNAKNSVYLQMNSLKPEDTAVYYCAASSTSGYDWGQGTQVTVSS | low polyreactivity
QVQLVESGGGLVLTGGSLRLSCAASGSILGTYAMGWYRQAPGKERELVARISRGGSTNYADSVKGRFTISRDNAKNTVYLQMNSLKPEDTAVYYCAKRLYLPESWRYYYWGQGTQVTVSS | high polyreactivity
QVQLLESGCGLVQAGGSLRLSCMASGSILGDRMSWYRQAPGKEHELVATIYDGGITYYADSMKGRFTISRDNAKNTVYLQMNSLRPEDTAVYYCGASFEGYRYHVYCGQGTQVTVSS | low polyreactivity
QVQLVESGGGLVQAGGSLRLSCAASGSIVGSYAMGWYRQAPGKERELVAGIRSGGSTYYADSVKGRFTISRDNAKNTVYLQMNSLKPEDTAVYYCAGHEEYWGHGTQVTVSS | low polyreactivity
QVQLVESGGGLVQAGGSLRLSCAASGRIGKYAMGWYRQAPGKERELVATISSTGTTNYADSVKGRFTISRDNAKNTVYLQMNSLKPEDTAVYYCAADKPSYRTLSWGGYWGQGTQVTVSS | high polyreactivity
QVQLVESGGGLVQAGGSLRLSCAASGSTFEPYARGWYRQAPGKERELVAAISSSGSTNYADSVKGRFTISRDNAKNTVYLQMNSLKPEDTAVYYCNARRQRSPIEVCERGYWGQGTQVTVSS | high polyreactivity
QVQLVESGGGLVQAGGSLRLSCAASGYIFAGNAMGWYRQAPGKERELVAAINSDGRTYYADSVRGRFTISRDNAKNSVYLQMNSLKPEDTAVYYCAVVRFYLGDYLVEFDYWGQGTQVTVSS | low polyreactivity
QVHLVQSGGGIVQEGGSLRISCAASGFTLIHYAMGWYRQAPGKERELVAGITTSGGSTYYADSVKGRFTISRDNAKNTVYLQMKSLKPEDTGVYYCADSSNTRGDYWGQGTQVTVSS | high polyreactivity
QVQLVESGGGLVQAGGSLRLSCAASGSPFVDNDMGWSRQAPGKDRELVAAAITARGGSTYYADSVKGRFTISRDNAKNTVYLQMNSLKPEDTAVYYCAAGRPGELDYWGQGTQVTVSS | low polyreactivity
QVQLVESGGGLVQAGGSLRLSCAASGSIFWPYAMGWYRQAPGKEREFVAAITWSGGSTYYADSVKGRFTISRDNAKNTVYLQMNSLKPEDTAVYYCAAEITWYYHDFGYWGQGTQVTVSS | high polyreactivity
QVQLVESGGGLVQAGGSLRLSCAASGRIFAVNAMGWYRQAPGKERELVAAINGGGSTNYADSVKGRFTISRDNAKNTVYLQMNSLKPEDTAVYYCAADVGWRSQTRGYYWGQGTQVTVSS | high polyreactivity
QVQLVESGGGLVQAGGSLRLSCAASGRIFHANAMGWYRQAPGKERELVAGISRNGGRTYYADSVKGRFTISRDNAKNTVYLQMNSLKPEDSAVYYCNALHWHSNELDYYWGQGTQVTVSS | high polyreactivity
QVQLVESGGGLVQAGGSLRLSCAASGIIFVKNAMGWYRQAPGKERELVAAISRSGARTYYADSVKGRFTISRDNEKNTVYLQMNSLKPEDTAVYYCNVYTRDRGYDYWGHGTQVTVSS | high polyreactivity
QVQLQESGGGLVQAGGSLCLSCAASGTNFFDGHMGWYRQAPGKEREFVAAINPGGSAYYADSLKGRLPLAAITHTVYLQMNSLKPEDTAVYYCAAILFDVYGYYYWGQGTHVTVSS | low polyreactivity
QVQLVESGGGLVQEGGSLRLSCAASGITFSRNAMGWYRPAPGKERELVATITSGGSTNYADSVKGRFTISRDNAKNNVYLQMNSLKPEDTAVYYCNAVWNTFISGRSYDYWGQGTQVTVSS | low polyreactivity
QVQLVESGGGLVQAGGSLRLSCAASGRIISRYTMGWSRQAPGKEREWVAGISRSGDRTYYADSVKGRFTISRDNAKNTVYLQMNSLKPEDTAVYSCNAGYWRFIDSYDYWGQGTQVTVSS | high polyreactivity
QVQLVESGGGLVQAGGSLLLSCAASGTTSLVNAMGSYRQAPGKERELVAAISWSGGSTYYADSVKGRFTISRANAKNTVFLQRNSLKPEDTAVYYCAAESYGYWEYDYWGQGTQVTLSS | high polyreactivity
QVQLVESGGGLVQAGGSLRLSCAASGRTFIVNAMAWYRQAPGKERELVAAISSGGSTNYADSVKGRFTISRDNAKNTVYLQMNSLKPEDTAVYYCASRLRGPRSYWSWYGYWGQGTQVTVSS | high polyreactivity
QLQLVESGGGLVQAGGSLRLSSAASGFTFSIYAMGCYRQAPGKERELVAAINFGGGGTYYADSVKGRFTSSRDIAKNTVYLQMNSLKAEVTAVYDCAADYCYDYYSTEYDYWGQGTQVTVSS | low polyreactivity
QVQLVESGGALVQAGGSLRLSCAASGSIFFSYAMGWYRQAPGKERELVAAISTSGGNTYYADSVKGRFTISRDNAKHTVYLQMNSLKPEDTAVYYCNDRGSYPPYRSYGYWGQGTQVTVSS | low polyreactivity

Sequence | polyreactivity (PSR sort gate)
QVQLVESGGGLVQAGGSLRLRCAASGRTFRVYAMGWYRQAPGKERELVATITSSGGSTYYADSVKGRFTISRDNAKNTVYLQMNSLKPEDTAVYYCNVSVYNNYDSSYYYWGQGTQVTVSS | low polyreactivity
QVLLVESGGGLVQAGGSLRLSGAASGSTFYNYAMGWNRQAPGKERELVASISDDGSTNYADSVKGRFTISRDNAKNTVYLQMNSLKQVDSAVYSCAAVWWLQFGSAWYQMGYWGQGTQVTVSS | low polyreactivity
QVQLVESGGGLVQAGGSLRLSCAASGITFYPYAMGWYRQAPGKERELVASISWSGGSTYYADSVKGRFTISRDNAKNTVYLQMNSLKPEDTAVFYCNAEYWLPYYPDYDYWGQGTQVTVSS | low polyreactivity
QDQHVESGGGLVQAGCSLRLSCAASGRTFTYNAMGWYRQAPGKERELVASISSRGGSTYYADSVKGRFTISRDNAKNTVYLQMNSLKPEDTAVYYCAARWRYQLSGSRLSYGKYDYWGQGTQVTVSS | high polyreactivity
QVQLVESGGCLVQAGGSLRLSCAASGSTFSWYTMGWYRQAPGKERELVAAITRGGTTYYADSVKGRFTISRDNAKNTVYLQMNSLKPEDSAVYYCAARYSRDVRMGYWGQGTQVTVSS | high polyreactivity
QFQLDESGGGLVQAGGSLRLSCAASGLTFSIYAMGWYRKARGKERELVAAITGRGGRTYYADSVKGRFTISRENAKNTVYLQMKSLKPEDTAFYYCADRYRGTDFDYWGQGTQVTVSS | high polyreactivity
QVQLVESGGGLVQAGGSLRLSCAASGSISGYNAMGWYRQAPGKERELVAAISWAGGITRYADSVKGRFTISRDNAKNPVYLQMNSLKPEDTAVYYCAADQTYERHWVYYWGQGTQVTVSS | low polyreactivity
QVQLIESGGGLVKAGGSLRLSCAATGSIFYRNTMGWYRQAPGKERELVARISWSGGRTYYADSVKGRFTISRDNAKNTVYLQMNSLKPEDTAVYYCAASTYGQRGTSYGYWGQGTQVSVSS | low polyreactivity
QVQLVESGGGLVQAGGSLRLSCAASGRTFPRNGMGWYRQAPGKERELVAAISWSGGRTYYADSVKGRFTISRDNAKNTVYLQMNSLKPEDTAVYYCNALYFRKGGYWGQGTQVTVSS | high polyreactivity
QVQLVESGGGLVQAGGSLRLSCAASGIIFRPYAMGWYRQAPGTEMELVAAITGSGVSTYYADSVKGRFTISRDNAKNTVYLQMNSLKPEDTAVYYCAKRYNRGYHRYDYWGQGTQVTVSS | low polyreactivity
QVQLVESGGGLVQAGGSLRLSCAASGFIFYRNTMGWYRQAPGKESELVAAISRRGGNTYYADSVKGRFTISRDYAKNTVYLQMNSLKPEDTAVYYCNADGNAVYNRVSYDYWGQGTQVTVSS | high polyreactivity
QVQLVESGGGLVQAGGSLRLRGAASGSIFVYYAMGWYRPAPGKERELVASISESDGSTSYADSVKGRFTISRDNAKNTVYLQMNSLKPEDTAVYYCAADPYFYWYSPSFDYWGQGTQVTVSS | low polyreactivity
QVQLVESGGGLVQAGGSLRLSCAASGSTFLVYAMGWYRQAPGKERELVAAIRGGGSTNYADSVKGRFTISRDNAKNTVYLQMNSLKPEDTAVYYCNADIVLSWFGSGFDYWGQGTQVTVSS | low polyreactivity
QVQLVESGGGLVQAGGSLRLSCAASGSTITRYAMGWYRQAPGKERELVAVISRSGGSTYYADSVKGRFTISRDNAKNTVYLQMNSLKPEDTAVYYCAAKYYGGRRSPYSYGYWGQGTQVTVSS | high polyreactivity
QVQLVESGGGLVQAGGSLRLSCAASGSIFSSNTMGWYRQAPGKERELVAAITVSGGRTYYADSVKGRFTISRDNAKNTVYLQMNSLKPEDTAVYYCATRWFGNSYSYRAYDYWGQGTQVTVSS | high polyreactivity
QDHLVESGGCLVQAGGSLRLSCSASGRIFRYYAMGWYRHAPGKERELVAAIRNGGSTYYADSVKGRFTISRDNAKNTVYLQMNSLKPEDTAVYYCAAGYNYVSHRCGDWGQGSQVTVSS | high polyreactivity
QVHLVESGGGLVQAGGSLRISCAASGSIFFPYAMGGYRQAPGKERELVAAISYSGTSTYYAASVKGRFTISRDNAKNTVYLQMNSLKPVDTAVYYCAAYSRYYASYDYWGQGTQVTVSS | high polyreactivity
QDQHVESGGGLVQAGGSLRLSCAASGRTFGNYAMGWYRQAPGKERELVADITRRGGSTSYADSVKGRFTISRDNAKNTVYLQMNSLKPEDTAVYYCNKAADGSSHYDYWGQGTQVTVSS | low polyreactivity
QVQLVESGGGLVQAGGSLRLSCAASGIIFTYYAMGWYRQAPGKERELVAAISYRGGSTYADSVKGRFTISRDNAKNTVSLQMNSLKPEDTAVYYCAAQRWYVYGQKYHYGYWGQGTQVTVSS | high polyreactivity
QVQLVESGGGLVQAGGSLRLSCAASGFTFTEYTMGRYRQAPGKERELVATISWSGGSTYYADSVKGRFTISRDNAKNTVYLQMNSLKPEDTAVYYCAKDQWPWVRDSLYTLRYDYWGQGTQVTVSS | low polyreactivity
QVQLVESGGGLVQAGGSLRLSCAASGFIFAWYAMGWYRQAPGKERELVAAITSSGTSTYYADSVKGRFTISRDNAKNTVYLQMNSLTPEDTAVYYCAAVTKRYLAYDYWGQGTQVTVSS | high polyreactivity

— the nanobody polyreactivity screen of Harvey et al. (2022)
